Laboratory results as given in patent publication US20210032299A1.
Starred links: 1 amine or outer side, 2 acyl side, 3 side chain; linkers in the order of their positions; H or OH if unused. Non-standard residues stand in square brackets, D forms with d. Groups on a side chain read outwards from the residue. No end group written: not given here. *: point of attachment. C20 diacid = O=C(O)CCCCCCCCCCCCCCCCCCC(=O)*; C18 diacid = O=C(O)CCCCCCCCCCCCCCCCC(=O)*; αMePhe(2-F) = C[C@](N)(Cc1ccccc1F)C(=O)O; γGlu = O=C(O)[C@H](CCC(=O)[*:2])N[*:1]; 4Pal = N[C@@H](Cc1ccncc1)C(=O)O; αMeL = CC(C)C[C@](C)(N)C(=O)O; AEEA = NCCOCCOCC(=O)O; Aib = CC(C)(N)C(=O)O

B1: Example 99 (peptide)
peptide: Y[Aib]EGT[αMePhe(2-F)]ISDYSIALDKIHQ[Aib]DFVEYK([AEEA-AEEA-γGlu-C20 diacid])LEGGPSSGAPPPS-NH2
modifications: N-terminus assumed
SMILES: CC[C@H](C)[C@H](NC(=O)[C@H](CO)NC(=O)[C@H](Cc1ccc(O)cc1)NC(=O)[C@H](CC(=O)O)NC(=O)[C@H](CO)NC(=O)[C@@H](NC(=O)[C@](C)(Cc1ccccc1F)NC(=O)[C@@H](NC(=O)CNC(=O)[C@H](CCC(=O)O)NC(=O)C(C)(C)NC(=O)[C@@H](N)Cc1ccc(O)cc1)[C@@H](C)O)[C@@H](C)CC)C(=O)N[C@@H](C)C(=O)N[C@@H](CC(C)C)C(=O)N[C@@H](CC(=O)O)C(=O)N[C@@H](CCCCN)C(=O)N[C@H](C(=O)N[C@@H](Cc1c[nH]cn1)C(=O)N[C@@H](CCC(N)=O)C(=O)NC(C)(C)C(=O)N[C@@H](CC(=O)O)C(=O)N[C@@H](Cc1ccccc1)C(=O)N[C@H](C(=O)N[C@@H](CCC(=O)O)C(=O)N[C@@H](Cc1ccc(O)cc1)C(=O)N[C@@H](CCCCNC(=O)COCCOCCNC(=O)COCCOCCNC(=O)CC[C@H](NC(=O)CCCCCCCCCCCCCCCCCCC(=O)O)C(=O)O)C(=O)N[C@@H](CC(C)C)C(=O)N[C@@H](CCC(=O)O)C(=O)NCC(=O)NCC(=O)N1CCC[C@H]1C(=O)N[C@@H](CO)C(=O)N[C@@H](CO)C(=O)NCC(=O)N[C@@H](C)C(=O)N1CCC[C@H]1C(=O)N1CCC[C@H]1C(=O)N1CCC[C@H]1C(=O)N[C@@H](CO)C(N)=O)C(C)C)[C@@H](C)CC
B2: Example 100 (peptide)
peptide: Y[Aib]EGTFISDYSI[αMeL]LDKIHQ[Aib]EFVE[4Pal]K([AEEA-AEEA-γGlu-C20 diacid])LEGGPSSGAPPPS-NH2
modifications: N-terminus assumed
SMILES: CC[C@H](C)[C@H](NC(=O)[C@H](CCCCN)NC(=O)[C@H](CC(=O)O)NC(=O)[C@H](CC(C)C)NC(=O)[C@](C)(CC(C)C)NC(=O)[C@@H](NC(=O)[C@H](CO)NC(=O)[C@H](Cc1ccc(O)cc1)NC(=O)[C@H](CC(=O)O)NC(=O)[C@H](CO)NC(=O)[C@@H](NC(=O)[C@H](Cc1ccccc1)NC(=O)[C@@H](NC(=O)CNC(=O)[C@H](CCC(=O)O)NC(=O)C(C)(C)NC(=O)[C@@H](N)Cc1ccc(O)cc1)[C@@H](C)O)[C@@H](C)CC)[C@@H](C)CC)C(=O)N[C@@H](Cc1c[nH]cn1)C(=O)N[C@@H](CCC(N)=O)C(=O)NC(C)(C)C(=O)N[C@@H](CCC(=O)O)C(=O)N[C@@H](Cc1ccccc1)C(=O)N[C@H](C(=O)N[C@@H](CCC(=O)O)C(=O)N[C@@H](Cc1ccncc1)C(=O)N[C@@H](CCCCNC(=O)COCCOCCNC(=O)COCCOCCNC(=O)CC[C@H](NC(=O)CCCCCCCCCCCCCCCCCCC(=O)O)C(=O)O)C(=O)N[C@@H](CC(C)C)C(=O)N[C@@H](CCC(=O)O)C(=O)NCC(=O)NCC(=O)N1CCC[C@H]1C(=O)N[C@@H](CO)C(=O)N[C@@H](CO)C(=O)NCC(=O)N[C@@H](C)C(=O)N1CCC[C@H]1C(=O)N1CCC[C@H]1C(=O)N1CCC[C@H]1C(=O)N[C@@H](CO)C(N)=O)C(C)C
B3: Example 94 (peptide)
peptide: Y[Aib]EGT[αMePhe(2-F)]ISDYSIALDKIHQ[Aib]EFVNYK([AEEA-AEEA-γGlu-C18 diacid])LAGGPSSGAPPPS-NH2
modifications: N-terminus assumed
SMILES: CC[C@H](C)[C@H](NC(=O)[C@H](CO)NC(=O)[C@H](Cc1ccc(O)cc1)NC(=O)[C@H](CC(=O)O)NC(=O)[C@H](CO)NC(=O)[C@@H](NC(=O)[C@](C)(Cc1ccccc1F)NC(=O)[C@@H](NC(=O)CNC(=O)[C@H](CCC(=O)O)NC(=O)C(C)(C)NC(=O)[C@@H](N)Cc1ccc(O)cc1)[C@@H](C)O)[C@@H](C)CC)C(=O)N[C@@H](C)C(=O)N[C@@H](CC(C)C)C(=O)N[C@@H](CC(=O)O)C(=O)N[C@@H](CCCCN)C(=O)N[C@H](C(=O)N[C@@H](Cc1c[nH]cn1)C(=O)N[C@@H](CCC(N)=O)C(=O)NC(C)(C)C(=O)N[C@@H](CCC(=O)O)C(=O)N[C@@H](Cc1ccccc1)C(=O)N[C@H](C(=O)N[C@@H](CC(N)=O)C(=O)N[C@@H](Cc1ccc(O)cc1)C(=O)N[C@@H](CCCCNC(=O)COCCOCCNC(=O)COCCOCCNC(=O)CC[C@H](NC(=O)CCCCCCCCCCCCCCCCC(=O)O)C(=O)O)C(=O)N[C@@H](CC(C)C)C(=O)N[C@@H](C)C(=O)NCC(=O)NCC(=O)N1CCC[C@H]1C(=O)N[C@@H](CO)C(=O)N[C@@H](CO)C(=O)NCC(=O)N[C@@H](C)C(=O)N1CCC[C@H]1C(=O)N1CCC[C@H]1C(=O)N1CCC[C@H]1C(=O)N[C@@H](CO)C(N)=O)C(C)C)[C@@H](C)CC
B4: Example 5 (peptide)
peptide: Y[Aib]EGTFISDYSI[αMeL]LDKIHQ[Aib]DFVEYK([AEEA-AEEA-γGlu-C20 diacid])LEGGPSSGAPPPS-NH2
modifications: N-terminus assumed
SMILES: CC[C@H](C)[C@H](NC(=O)[C@H](CCCCN)NC(=O)[C@H](CC(=O)O)NC(=O)[C@H](CC(C)C)NC(=O)[C@](C)(CC(C)C)NC(=O)[C@@H](NC(=O)[C@H](CO)NC(=O)[C@H](Cc1ccc(O)cc1)NC(=O)[C@H](CC(=O)O)NC(=O)[C@H](CO)NC(=O)[C@@H](NC(=O)[C@H](Cc1ccccc1)NC(=O)[C@@H](NC(=O)CNC(=O)[C@H](CCC(=O)O)NC(=O)C(C)(C)NC(=O)[C@@H](N)Cc1ccc(O)cc1)[C@@H](C)O)[C@@H](C)CC)[C@@H](C)CC)C(=O)N[C@@H](Cc1c[nH]cn1)C(=O)N[C@@H](CCC(N)=O)C(=O)NC(C)(C)C(=O)N[C@@H](CC(=O)O)C(=O)N[C@@H](Cc1ccccc1)C(=O)N[C@H](C(=O)N[C@@H](CCC(=O)O)C(=O)N[C@@H](Cc1ccc(O)cc1)C(=O)N[C@@H](CCCCNC(=O)COCCOCCNC(=O)COCCOCCNC(=O)CC[C@H](NC(=O)CCCCCCCCCCCCCCCCCCC(=O)O)C(=O)O)C(=O)N[C@@H](CC(C)C)C(=O)N[C@@H](CCC(=O)O)C(=O)NCC(=O)NCC(=O)N1CCC[C@H]1C(=O)N[C@@H](CO)C(=O)N[C@@H](CO)C(=O)NCC(=O)N[C@@H](C)C(=O)N1CCC[C@H]1C(=O)N1CCC[C@H]1C(=O)N1CCC[C@H]1C(=O)N[C@@H](CO)C(N)=O)C(C)C

What was measured:
[1] = target: T1, human glucose-dependent insulinotropic polypeptide (GIP) receptor (human), P48546; assay: SPA, displacement of [125I]-GIP from hGIPR membranes, 0.1% bacitracin
T1 chain: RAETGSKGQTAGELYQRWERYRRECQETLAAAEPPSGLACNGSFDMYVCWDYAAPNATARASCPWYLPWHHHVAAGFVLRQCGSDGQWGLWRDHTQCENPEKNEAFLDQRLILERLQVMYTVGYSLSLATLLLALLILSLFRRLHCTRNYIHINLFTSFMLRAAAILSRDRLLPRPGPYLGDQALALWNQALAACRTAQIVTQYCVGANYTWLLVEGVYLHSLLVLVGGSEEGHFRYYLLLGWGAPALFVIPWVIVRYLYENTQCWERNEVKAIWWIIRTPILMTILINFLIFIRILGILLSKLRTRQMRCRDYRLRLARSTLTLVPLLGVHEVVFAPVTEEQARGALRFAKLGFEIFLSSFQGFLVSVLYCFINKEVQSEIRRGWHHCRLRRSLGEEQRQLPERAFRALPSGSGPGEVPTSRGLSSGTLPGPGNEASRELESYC

[2] = target: human glucagon receptor (human), P47871; assay: SPA, displacement of [125I]-Gcg from hGcgR membranes, 0.1% bacitracin
Chain of human glucagon receptor (human), P47871 (P47871 26-477): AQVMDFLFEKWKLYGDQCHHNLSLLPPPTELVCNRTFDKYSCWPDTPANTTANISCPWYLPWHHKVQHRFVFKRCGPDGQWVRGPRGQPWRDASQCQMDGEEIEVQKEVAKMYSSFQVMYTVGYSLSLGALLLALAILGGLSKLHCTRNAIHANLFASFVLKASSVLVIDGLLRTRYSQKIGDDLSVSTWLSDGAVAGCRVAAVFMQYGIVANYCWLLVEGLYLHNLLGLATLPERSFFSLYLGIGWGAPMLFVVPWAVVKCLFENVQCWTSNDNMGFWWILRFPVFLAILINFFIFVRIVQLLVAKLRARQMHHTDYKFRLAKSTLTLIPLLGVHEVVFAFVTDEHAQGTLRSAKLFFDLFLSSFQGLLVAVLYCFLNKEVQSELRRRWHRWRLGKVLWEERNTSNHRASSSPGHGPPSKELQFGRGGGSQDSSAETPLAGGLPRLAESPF

Row | Binder | Ki [1] | Ki [2]
1 | B1 | 0.0341 nM | 174 nM
2 | B2 | 0.0674 nM | 572 nM
3 | B3 | 0.031 nM | 114 nM
4 | B4 | 0.0771 nM | 619 nM
